Source: US11819556B2, “Stabilized compositions of radionuclides and uses thereof” (RayzeBio, Inc., priority 2021, dated 2023)

Assay: Sodium ascorbate concentration optimization: radio-TLC purity
Format: physicochemical
Settings: 25° C.
Experimental: The mixture was kept at room temperature (25° C.). At different time points, radioactive components of the formulated dose were measured by radio-TLC as described in the table below: […]

(2,2′,2″-(10-(2-4(R)-1-(((4R,7S,10S,13R,16S,19R)-13-((1H-indol-3-yl)methyl)-10-(4-aminobutyl)-4-(((1S,2R)-1-carboxy-2-hydroxypropyl)carbamoyl)-16-(4-hydroxybenzyl)-7-((R)-1-hydroxyethyl)-6,9,12,15,18-pentaoxo-1,2-dithia-5,8,11,14,17-pentaazacycloicosan-19-yl)amino)-1-oxo-3-phenylpropan-2-yl)amino)-2-oxoethyl)-1,4,7,10-tetraazacyclododecane-1,4,7-triyl)triacetate; actinium-225(3+)) [[^225Ac]Ac-DOTA-TATE]
Percentage of ^225Ac present in [^225Ac]Ac-DOTA-TATE (sodium ascorbate 1 mM, 0 hour, Radioactivity concentration at 1 mCi/ml): 99.76% | Percentage of ^225Ac present in [^225Ac]Ac-DOTA-TATE (sodium ascorbate 1 mM, 24 hours, Radioactivity concentration at 1 mCi/ml): 91.11% | Percentage of ^225Ac present in [^225Ac]Ac-DOTA-TATE (sodium ascorbate 1 mM, 48 hours, Radioactivity concentration at 1 mCi/ml): 52.06% | Percentage of ^225Ac present in [^225Ac]Ac-DOTA-TATE (sodium ascorbate 10 mM, 0 hour, Radioactivity concentration at 1 mCi/ml): 99.78% | Percentage of ^225Ac present in [^225Ac]Ac-DOTA-TATE (sodium ascorbate 10 mM, 24 hours, Radioactivity concentration at 1 mCi/ml): 92.21% | Percentage of ^225Ac present in [^225Ac]Ac-DOTA-TATE (sodium ascorbate 10 mM, 48 hours, Radioactivity concentration at 1 mCi/ml): 86.11% | Percentage of ^225Ac present in [^225Ac]Ac-DOTA-TATE (sodium ascorbate 100 mM, 0 hour, 0.02 mCi/ml, 0.05 mg/ml DTPA): 99.15% | Percentage of ^225Ac present in [^225Ac]Ac-DOTA-TATE (sodium ascorbate 100 mM, 24 hours, 0.02 mCi/ml, 0.05 mg/ml DTPA): 98.76% | Percentage of ^225Ac present in [^225Ac]Ac-DOTA-TATE (sodium ascorbate 100 mM, 48 hours, 0.02 mCi/ml, 0.05 mg/ml DTPA): 96.94% | Percentage of ^225Ac present in [^225Ac]Ac-DOTA-TATE (sodium ascorbate 100 mM, 72 hours, 0.02 mCi/ml, 0.05 mg/ml DTPA): 96.16% | Percentage of ^225Ac present in [^225Ac]Ac-DOTA-TATE (sodium ascorbate 100 mM, 96 hours, 0.02 mCi/ml, 0.05 mg/ml DTPA): 95.84% | Percentage of ^225Ac present in [^225Ac]Ac-DOTA-TATE (sodium ascorbate 100 mM, 120 hours, 0.02 mCi/ml, 0.05 mg/ml DTPA): 95.44% | Percentage of ^225Ac present in [^225Ac]Ac-DOTA-TATE (sodium ascorbate 100 mM, 144 hours, 0.02 mCi/ml, 0.05 mg/ml DTPA): 95.34% | Percentage of ^225Ac present in [^225Ac]Ac-DOTA-TATE (sodium ascorbate 200 mM, 0 hour, 0.02 mCi/ml, 0.05 mg/ml DTPA): 99.22% | Percentage of ^225Ac present in [^225Ac]Ac-DOTA-TATE (sodium ascorbate 200 mM, 24 hours, 0.02 mCi/ml, 0.05 mg/ml DTPA): 98.16% | Percentage of ^225Ac present in [^225Ac]Ac-DOTA-TATE (sodium ascorbate 200 mM, 48 hours, 0.02 mCi/ml, 0.05 mg/ml DTPA): 97.12% | Percentage of ^225Ac present in [^225Ac]Ac-DOTA-TATE (sodium ascorbate 200 mM, 72 hours, 0.02 mCi/ml, 0.05 mg/ml DTPA): 95.63% | Percentage of ^225Ac present in [^225Ac]Ac-DOTA-TATE (sodium ascorbate 200 mM, 96 hours, 0.02 mCi/ml, 0.05 mg/ml DTPA): 95.51% | Percentage of ^225Ac present in [^225Ac]Ac-DOTA-TATE (sodium ascorbate 200 mM, 120 hours, 0.02 mCi/ml, 0.05 mg/ml DTPA): 94.38% | Percentage of ^225Ac present in [^225Ac]Ac-DOTA-TATE (sodium ascorbate 200 mM, 144 hours, 0.02 mCi/ml, 0.05 mg/ml DTPA): 91.27%
